# Reference: PMC4756307
# Target: T1, CodY (6His-CodY) (Streptococcus suis serotype 2 (strain SC19?)) (UniProt A0A0H3MTH0)
# T1 sequence: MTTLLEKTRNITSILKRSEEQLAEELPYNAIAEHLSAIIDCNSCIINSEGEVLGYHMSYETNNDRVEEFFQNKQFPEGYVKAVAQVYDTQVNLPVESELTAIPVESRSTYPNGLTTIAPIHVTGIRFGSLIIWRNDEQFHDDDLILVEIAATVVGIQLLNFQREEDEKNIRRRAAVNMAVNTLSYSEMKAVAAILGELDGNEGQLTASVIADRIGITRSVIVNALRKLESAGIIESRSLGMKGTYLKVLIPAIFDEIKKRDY
# Assay: EMSA
# Conditions: EMSA: 1 ug PCR product with 0-2200 ng CodY in binding buffer (Beyotime; composition, pH and salt not given), 30 min at 37 C, native PAGE, ethidium bromide …
row,Sequence,binding
1,AATACAAGCGACGATTCCCTTCGTTGCGATCGGGCTTAATCAAGCCTTGATCTTCATAGTAACGAATTTGACGAGCAGTTAAATCTGTCAACTTCATCACACTACCGATCGGAAAGATAGCTAAGGAACGACGAAACTCTTTTTCTCTCATAATGAACTCCTTTCTGCCTACCATTATAGGAGAATTTTTTTTTGAGGTCAATAGGTGATGTTATATTTTATAACATCATTTATCCTGAAAACGTTTTTTTATAACATTCACATCATAATTAACTAGAATCGCAATGAAAACTCC (double strand) [glnR promoter],binds
2,ATCTCGGTCTTTGGTTGTTTGGCTTTACAGCTCTATACTTTGTGGCAGCTTATCTGATTGCCCTCAATCCATCTCAAATCTTAAATAGTATCGGACGTATTTTAACCCCTGTTTTTGCGATTTTGATTGTGATTTTGGTGGTGCTTGGTATTGTTAAGTACGGATCAACAAGTCCGTTACCAGCTTCGGAAGCTTACTCAGCAGGACAGGCATTTGGTACAGGATTTATCGAGGGATACAATACACTCGACGCACTTGCTTCTATTGCTTTTAGTGTCGTAGCAGTAAATACCT (double strand) [bap2 promoter],binds
3,GGACGTATGCGCCTCTGCTTATGCCAGAAGTCATGAGGTAAATCTCCCTAAAAATTGGGTAGAAAAGCAGATTAAACTTCCACCAATCTATTGAAGATCGTGTGAAGAAGCAGGCTTTAGAAGCAACAAGCCCTGAGACTATTCGAAAGAAATCTAGGGCTATTTTTTCTAATCGGCTATCAGAAGTGAAGTAGCGATCTTTATTAGTGTTCTTTTACTACTTAAGGAAAACCAAGCTGCTCCCTCAAGACTTTATGGGAGCGATTTACAGTCATTT (double strand) [neuB (neu) promoter],no binding
4,TCTGTATTTATCATTGTAGTCCTATCTGCAACAGTAGAAAATTATATTGTAAATTTAAGTTTTGTATTTATGCCAATATGTTTTTGTTTATTAAATTCTATATCTACTATGGAATCAACTATTAACAAACAACTGCAAACATAAATTGGCAGGAATAGAGTTTTGAGTTGCTATTAATTTGGTAGAGCATATGTTCTATAGGTGGCAAGATAGAAGATAGTATTTTTTACATGATGATTTTTATGATAGCA (double strand) [cps2J promoter],binds
